Reference: US20230374147A1 (HUMMINGBIRD BIOSCIENCE PTE, published 2023)
Changes are numbered by the printed parent chain. Where two headings read alike, the source gives them in different places.

Experiments:
[1] = target: T1, recombinant his-tagged human TACI (Sinobiological cat #11937-H08H) (human, UniProt O14836 1-165); experiment: ELISA, coated His-tagged human TACI
T1 construct: Bought protein; also called Human TACI-His; huTACI; not shown: His tag
T1 sequence: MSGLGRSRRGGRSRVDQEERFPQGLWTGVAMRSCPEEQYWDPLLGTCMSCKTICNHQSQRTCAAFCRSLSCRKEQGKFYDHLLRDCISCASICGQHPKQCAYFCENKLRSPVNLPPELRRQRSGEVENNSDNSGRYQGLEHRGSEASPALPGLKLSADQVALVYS

[2] = target: T2, His-tagged human BCMA (Acro Biosystems, Cat. #BCA-H522y) (human, UniProt Q02223 1-54); experiment: BLI, His-tagged human BCMA on HIS1K tip
T2 construct: also called huBCMA; P1; not shown: His tag
T2 sequence: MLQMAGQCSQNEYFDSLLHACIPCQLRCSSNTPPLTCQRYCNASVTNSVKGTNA

[3] = target: T3, His-tagged mouse BCMA (Acro Biosystems, BCA-M52H3) (mouse, UniProt O88472 1-49); experiment: BLI, His-tagged mouse BCMA on HIS1K tip
T3 construct: Bought protein; not shown: His tag
T3 chain: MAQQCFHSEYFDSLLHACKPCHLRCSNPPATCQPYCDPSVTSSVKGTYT

[4] = target: T4, His-tagged cynomolgous macaque BCMA (Acro Biosystems, BCA-C52H7) (cynomolgus macaque, UniProt Q02223 1-54 (human entry)); experiment: BLI, His-tagged cynomolgus BCMA on HIS1K tip
T4 construct: Bought protein; also called cyno BCMA; CyBCMA; not shown: His tag

[5] = target: T5, human BCMA expressed on cells (human, UniProt Q02223 1-184); experiment: flow cytometry, H929 cells (BCMA-expressing)
T5 construct: the cell line is named under assay; also called wildtype human BCMA
T5 sequence: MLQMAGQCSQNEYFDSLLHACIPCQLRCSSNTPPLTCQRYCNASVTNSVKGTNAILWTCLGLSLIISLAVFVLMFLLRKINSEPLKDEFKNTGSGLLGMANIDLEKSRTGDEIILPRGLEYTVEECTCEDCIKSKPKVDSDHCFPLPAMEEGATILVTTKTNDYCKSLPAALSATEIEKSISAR

[6] = target: T2, His-tagged human BCMA (Acro Biosystems, …); experiment: BLI, His-tagged human BCMA on HIS1K tip; R2 0.9903
[7] = target: T4, His-tagged cynomolgous macaque BCMA …; experiment: BLI, His-tagged cynomolgus BCMA on HIS1K tip; R2 0.9205
[8] = target: T5, human BCMA expressed on cells; experiment: flow cytometry, HEK293 cells stably expressing human BCMA
[9] = target: T2, His-tagged human BCMA (Acro Biosystems, …); experiment: BLI, His-tagged human BCMA on HIS1K tip, no APRIL; R2 0.9903
[10] = target: T6, cynomolgous macaque BCMA expressed on CHOK1 cells; experiment: flow cytometry, CHOK1 cells transiently expressing cynomolgus BCMA
T6 construct: also called cyno BCMA on cells

[11] = target: T3, His-tagged mouse BCMA (Acro Biosystems, …); experiment: BLI, His-tagged mouse BCMA on HIS1K tip; R2 0.2621, below the filing's cut-off of 0.9
[12] = target: T2, His-tagged human BCMA (Acro Biosystems, …); experiment: ELISA, coated His-tagged human BCMA
[13] = target: T4, His-tagged cynomolgous macaque BCMA …; experiment: ELISA, coated His-tagged cynomolgus BCMA
[14] = target: T2, His-tagged human BCMA (Acro Biosystems, …); experiment: BLI, His-tagged human BCMA on HIS1K tip; R2 0.9933
[15] = target: T5, human BCMA expressed on cells; experiment: flow cytometry, HEK 293 cells expressing human BCMA
[16] = target: T4, His-tagged cynomolgous macaque BCMA …; experiment: BLI, His-tagged cynomolgus BCMA on HIS1K tip; R2 0.9421
[17] = target: T2, His-tagged human BCMA (Acro Biosystems, …); experiment: BLI, His-tagged human BCMA on HIS1K tip, no APRIL; R2 0.9933
[18] = target: T2, His-tagged human BCMA (Acro Biosystems, …); experiment: ELISA, coated His-tagged human BCMA; remark: listed apart in the source
[19] = target: T1, recombinant his-tagged human TACI …; experiment: ELISA, coated His-tagged human TACI; remark: listed apart in the source
[20] = target: T1, recombinant his-tagged human TACI …; experiment: ELISA, coated His-tagged human TACI; remark: listed apart in the source
BCMA Mut = target: T7, BCMA Mut (human, UniProt Q02223 1-184); experiment: flow cytometry on HEK293T cells expressing BCMA Mut
T7 construct: Expressed on HEK293T cells; also called human BCMA comprising the substitutions Y13A, D15A, L17G and L18G
T7 chain: T5 sequence with Y13A, D15A, L17G, L18G

[21] = target: T5, human BCMA expressed on cells; experiment: flow cytometry, H929 cells (BCMA-expressing); remark: listed apart in the source
[22] = target: T2, His-tagged human BCMA (Acro Biosystems, …); experiment: BLI, His-tagged human BCMA on HIS1K tip; R2 0.9915
[23] = target: T3, His-tagged mouse BCMA (Acro Biosystems, …); experiment: BLI, His-tagged mouse BCMA on HIS1K tip; R2 0.9403
[24] = target: T8, human TACI expressed on cells (human, UniProt O14836 1-293); experiment: flow cytometry, HEK 293 cells expressing human TACI
T8 construct: also called wildtype human TACI
T8 sequence: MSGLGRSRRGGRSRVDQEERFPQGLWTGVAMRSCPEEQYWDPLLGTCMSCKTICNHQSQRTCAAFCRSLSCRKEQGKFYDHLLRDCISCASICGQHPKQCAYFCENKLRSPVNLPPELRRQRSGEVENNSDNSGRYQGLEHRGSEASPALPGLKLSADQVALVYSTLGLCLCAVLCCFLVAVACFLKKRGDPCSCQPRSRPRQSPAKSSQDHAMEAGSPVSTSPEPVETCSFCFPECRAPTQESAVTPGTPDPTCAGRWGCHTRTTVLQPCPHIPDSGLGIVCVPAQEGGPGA

[25] = target: T4, His-tagged cynomolgous macaque BCMA …; experiment: BLI, His-tagged cynomolgus BCMA on HIS1K tip; R2 0.9915
[26] = target: T5, human BCMA expressed on cells; experiment: flow cytometry, HEK293 cells stably expressing human BCMA; remark: listed apart in the source
[27] = target: T2, His-tagged human BCMA (Acro Biosystems, …); experiment: BLI, His-tagged human BCMA on HIS1K tip, no APRIL; R2 0.9915
[28] = target: T6, cynomolgous macaque BCMA expressed on …; experiment: flow cytometry, CHOK1 cells transiently expressing cynomolgus BCMA; remark: listed apart in the source
[29] = target: T2, His-tagged human BCMA (Acro Biosystems, …); experiment: competition ELISA: His-tagged human BCMA binding to coated APRIL-Fc in the presence of the antibody

B1: 539-SP7-F4 hIgG1 (antibody, V domains shown)
VH: EVQLQQSGPELVKPGASMKISCKASGYSFTGYIMNWVKQSHGKNLEWIGLINPYNGDSIYNQKFKGKATLTVDKSSSTAYMELFSLTSEDSTVYYCAAGEEFAYWGQGTLVTVSA
VL: DIQMTQTSSSLSASLGDRVTISCRASQDISIYLNWFQQKPDGTVKLLIYFTSRLHPGVPSRFSASGSGTDYSLTISHLEHEDIATYFCQQGNTLPRTFGGGTKVELKR
notes: Human-mouse chimeric antibody, human IgG1 format
[1]
  binding result: no binding (tested: 10 ug/ml)
[2]
  Human BCMA response: 2.61
[3]
  Mouse BCMA response: 0.371
[4]
  Cyno BCMA response: 1.36
[5]
  EC50 (read off the curve): ~0.04 µg/mL
[6]
  Kd: < 0.001 nM
[7]
  Kd: 34.1 nM
[8]
  EC50 (read off the curve): ~0.05 µg/mL
[9]
  Kd: < 0.001 nM
[10]
  binding result: binds
[11]
  Kd: 8.97 nM

B2: 552-LN1-E9 hIgG1 (antibody, V domains shown)
VH: QIQLVQSGPELKKPGETVKISCKASGYTFTDYSIYWVKQAPGKGLKWMGWINTETGEPTYADDFKGRFAFSLETSASSAYLQINTLKNEDTATYFCSISYYYAMDYWGQGTSVTVSS
VL: DIVLTQSPASLAVSLGQRATISCRASKSVSTSGYSFLHWYQQKPGQPPKLLIYFASNLESGVPARFSGSGSGTDFTLNIHPVEEEDAATYYCQHSRELPRTFGGGTKLEIKR
notes: Human-mouse chimeric antibody, human IgG1 format; also called [6]
[1]
  binding result: no binding (tested: 10 ug/ml)
[12]
  EC50: 0.081 nM
[2]
  Human BCMA response: 2.76
[13]
  EC50 (read off the curve): ~0.08 µg/mL
[4]
  Cyno BCMA response: 1.8
[5]
  EC50 (read off the curve): ~0.05 µg/mL
[14]
  Kd: < 0.001 nM
[15]
  EC50: 0.65 nM
[16]
  Kd: 32.6 nM
[8]
  EC50 (read off the curve): ~0.1 µg/mL
[17]
  Kd: < 0.001 nM
[10]
  binding result: binds

B3: 539-SP1-C8 hIgG1 (antibody, V domains shown)
VH: EVQLQQSGPELVKPGSSVKMSCKASGYTFTNYVMHWVKQKPGQGLEWIGYILPYNDGTKYNEKFKGKATLTSDKSSSTAYMEFSVLTSEDSAVYYCARYDYEGSFDYWGQGTALTVSS
VL: DIQMTQTTSSLSASLGDRVTISCRASQDISNYLNWYQQKPDGTVKLLMCYTSRLHSGVPSRFSGSGSGTDFSLTISNLEQEDIATYFCQQGNTFPPTFGGGTKLEIKR
notes: Human-mouse chimeric antibody, human IgG1 format; also called [2]
[18]
  EC50 (read off the curve): ~0.009 µg/mL
[19]
  EC50 (read off the curve): ~0.01 µg/mL
[12]
  EC50: 0.059 nM
[20]
  EC50: 0.083 nM
BCMA Mut
  binding result: no binding
[2]
  Human BCMA response: 2.46
[3]
  Mouse BCMA response: 0.86
[4]
  Cyno BCMA response: 0.456
[5]
  EC50 (read off the curve): ~0.02 µg/mL
[21]
  EC50 (read off the curve): ~1 nM
[22]
  Kd: < 0.001 nM
[23]
  Kd: 29.5 nM
[15]
  EC50: 2.56 nM
[24]
  EC50: 8.2 nM
[25]
  Kd: 14.7 nM
[26]
  EC50 (read off the curve): ~0.4 µg/mL
[27]
  Kd: < 0.001 nM
[28]
  binding result: binds
[29]
  IC50: 1.17 nM
